Reference: doi:10.1101/2025.09.22.677689

Biological target: preformed TPX2-NLS - importin α ΔIBB complex (mouse) (UniProt A2APB8)
Test: pull-down; competition: GST-TPX2 NLS on magnetic glutathione beads first incubated with importin α ΔIBB, washed, then increasing concentrations of CFDP1 proteins in transfer buffer, 1 h at 4°C; SDS-PAGE with Coomassie stain or immunoblot

Substance: CFDP1 basic C-terminal fragment (aa 150-295), HIS tagged (from UniProt O88271 150-295) (domain or fragment)
- percent decrease of TPX2 bound importin α: 11%
